Where a chain is given by its changes, count along the chain named.
B1: His-hArc/Arg3.1 (recombinant human activity-regulated cytoskeleton-associated protein), wild type (natural protein, UniProt Q7LC44 2-396, looked up)
chain: ELDHRTSGGLHAYPGPRGGQVAKPNVILQIGKCRAEMLEHVRRTHRHLLAEVSKQVERELKGLHRSVGKLESNLDGYVPTSDSQRWKKSIKACLCRCQETIANLERWVKREMHVWREVFYRLERWADRLESTGGKYPVGSESARHTVSVGVGGPESYCHEADGYDYTVSPYAITPPPAAGELPGQEPAEAQQYQPWVPGEDGQPSPGVDTQIFEDPREFLSHLEEYLRQVGGSEEYWLSQIQNHMNGPAKKWWEFKQGSVKNWVEFKKEFLQYSEGTLSREAIQRELDLPQKQGEPLDQFLWRKRDLYQTLYVDADEEEIIQYVVGTLQPKLKRFLRHPLPKTLEQLIQRGMEVQDDLEQAAEPAGPHLPVEDEAETLTPAPNSESVASDRTQPE
B2: His-hArc/Arg3.1 C94/98A (natural protein, human, UniProt Q7LC44 2-396, looked up)
chain: B1 chain with C93A, C97A

Target: the molecule itself
Test: cross-linking

| Protein | binding result |
| --- | --- |
| B1 | binds |
| B2 | binds |

Reference: doi:10.1101/2025.07.20.665809 (bioRxiv, 2025)
